Assay results as given in the nanobody polyreactivity screen of Harvey et al. (2022).

Assay: yeast display, Sf9 membrane polyspecificity reagent, FACS + sequencing; frameworks hold sequencing errors
How it was run: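 Using colony PCR, genes from sorted yeast display clones were amplified, then sequenced on MiSeq at 2 × 250 and filtered by CDR length. The clones had been stained with 10% biotinylated, detergent-solubilized Sf9 membrane reagent for 1 hour at 4 °C and sorted by FACS into low and high (top ~1%) gates on anti-HA and streptavidin fluorescence. Polyreactivity labels come from the gate of origin.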

Sequence | polyreactivity (PSR sort gate)
QVQLVESGGGLVQAGGSLRLSCAASGFTFYAYAMGWYRQAPGKERELVAAISRTGGRTYYADSVKGRFTISRDNAKNTVYLQMNSLKPEDTAVYYCNRAGLHSTGYDYWGQGTQVTVSS | high polyreactivity
QVQLVDSGGGLVQAGGSLRLSCAASGFIFRRYAMGWYRQAPGKERDLVAVIRSSGGSTYYADSVKGRFTISRDNAKNTVYLQMNSLKPEDTAVYYCAARSILGYRSYGYWGEGTQVTVSS | high polyreactivity
QVQLVESGGGLVQAGGSLRLSCAASGSIIYLYAMGWYRQAPGKERELVAAITSIGGSTYADSVKGRFTISRDNAKNTVYLQMNSLKPEDTAVYYCNTDEYPLTVQVQYYYWGQGTQVTVSS | low polyreactivity
QVQLVESGGGLVQAGGSLRLSCAASGFTYYYYAMGWYRQAHGKERELVAAISTRDGNTYYADSVKGRFTISRDNAKNTVYLQMNSLKPEDTAVYYCAADYFRYYPYDYWGQGTLVTVSS | low polyreactivity
QDQLVESGGGLVQAGGSLRLSCAASGITFFVYDMGWYRQAPGTERELVAAITWSGDSTYYADSVKGRFTISRDNAKNTVYLQMNSLKPEDTAVYYCAAQFDVYYSRQPYDYNRSGYWGQGTQVTVSS | low polyreactivity
QVQLVESGGGLVQAGGSLRLSCAASGSTFPSYAMGWYRQAPGKERELVAAINSGGGTNYADSVKGRFTISRDNAKNTVYLQINSLKPEDTAVFYCAKSRYDYTKTEGVYWGQGTQVTVSS | low polyreactivity
QVQLVESGGGLVQAGGSLRLSCAASGRIFSFNAMGWYRQAPGKERELVAAISWSTGSTFYADSVKGRFTISRDNAKNTVYVQMNSLKPEDTAFYYCAREYYYRRGFFLRGYWGQGTQVTVSS | high polyreactivity
QVQLVESGGGLVQAGGSLRLSCAASGRILHGYTMGWYRQAPGKERELVAAITSGGSTYYADSVKGRFTISRDNAKNTVYLQMNSLKPEDTAVYYCAAASYRHEEYYWGQGTQVTVSS | high polyreactivity
QVQLVESGGGLVQAGGSLRLSCAASGSTFILYAMGCYIQAPGKERELVAAITASGGSTYADSVKGRFTISRDNSKNTVYLQMNSLKPEDSAVYYCAARRWSSKYRKYDYWGQGTQVTVSS | high polyreactivity
QGQLVESGGGLVQAGGSLRLSCAASGRIFPYAMGWYRQAPGKERELVAAISRIGGITYYADSVKGRFTISRDNAKNTVYLQMNSLKPEDTAVYYCNARFHPYRWTFDYWGQGTQVTVSS | high polyreactivity
QVQVVESGGGLVQEGGSLRLSCSASGRIFGVNAMGWYRKAPGKERELFAAISRSGGSTYYADSVKGRFTISRDNEKNTVYLQMNSLNPEDTAVYYCAAGGRRYDDDYWGQGTQVTVSS | high polyreactivity
QVQLVESGGGLVQAGGSLRLSCAASGSTFQNNAMGWYRQAPGKERELVATISRRGGSTYYADSVKGRFTISRDIAKNTVYLQMNSLKPEDTAVYYCTGRDYWGQGTQVTVSS | high polyreactivity
QVQLVESGGGLVQAGGSLRLSCASGSTYVYAMGWYRQAPGKERELVATISSTGSTYYADSVKGRFTISRDNAKNTVYLQMNSLKQEDTAVYYCAADVWNNGWIYGSYDEYDYWGQGTQVTVSS | high polyreactivity
QVQLVVSGGVLVQAGGSLRLSCAASGRTFASYTMGWYIQAAGKERELVAAISRGGNTYYADSVKGRFTISRDIAKNTVYLQMNSLKPDDTAVYYCAATAVKYDRRFYYWGQGTQVTVSS | high polyreactivity
QVQLVESGGGLVQAGGSLRLSCAASGRIFRYNAMGWYRQAPGKERELVAAITRSGGSTYYADSVKGRFTISRDNAKNTVYLQMNSLKPEDTAVYYCAKVQNGQWSTSRVPGDYQYNYWGQGTQVTVSS | high polyreactivity
QVQLVESGGGLVQAGGSLRLSCAASGFIFIVYAMGWYRQAPGKERELVASITYSGGGTYYADSVKGRFTISRDNAKNTVYLQKNSLKPEDTAVYYCNADVSWSYSVYREYGMDYWGQGTQVTVSS | low polyreactivity
QVTLVESGGGLVQAGGSLRLSCAASVLIFYSYAMGWYRQAPGKERELVAAISSGTRTYYADSVKGRFTISRDNAKNTVYLQMNSLKPEDTAVYYCAAVDAHKKRYPPSGRLYGYWGHGTQVTVSS | high polyreactivity
QVQLVESGGGLVQAGGSLRLSCAASGRISGYNMGWYRQAPGKERELVAAISNGGSTNYADSVKGRFTISRDNAKNTVYLQMNSLKPEDTAVYYCNRRVPYSFYSRGYYYWGQGTQVTVSS | high polyreactivity
QVQLVESGGGLVQAGGSLRLSCAASGSIFGPYAMGWYRQAPGKERELVAVISKRGGSTYYADSVKGRFTISRDNAKNTVYLQMNSLKPEDTAVYYCAADYDWDPYRIYYLASYDYWGQGTQVTVSS | high polyreactivity
QVQLVESGGGLVQAGGSLGLSCAASGIIFQANAMGWYRQAPGKERELVAGISRGSSTNYADSVKGRFTISRDNEKNTVYLQMNILKPEDTAVYYCASDRGYGRISRNYYWGQGTQVTVSS | low polyreactivity
QVQLVESGGGLVQAGGSLRLSCAASGYIFKKYAMGWYRQAPGKEREFVAAISISGGRTYYADSVKGRFTISRDNAKNTVYLQMNSLKPEDTAVYYCNKVHYGRRHSYSGAIYGEDYWGQGTQVTVSS | high polyreactivity
QVQLVESGGGLVQAGGSLRLSCAASGITFHWYAMGWYRQAPGKERELVAAITSSGDSTFYADSVKGRFTISRDNAKNSVYLQMNSLKPEDTAVYYCAVDVYVGYWGRLYYWGQGTQVTVSS | low polyreactivity
